In publication PMC4066579 (Nature methods, 2009):
Where two headings read alike, the source gives them in different places.

B1: MacB (natural protein, UniProt P75831 1-648, looked up)
chain: MTPLLELKDIRRSYPAGDEQVEVLKGISLDIYAGEMVAIVGASGSGKSTLMNILGCLDKATSGTYRVAGQDVATLDADALAQLRREHFGFIFQRYHLLSHLTAEQNVEVPAVYAGLERKQRLLRAQELLQRLGLEDRTEYYPAQLSGGQQQRVSIARALMNGGQVILADEPTGALDSHSGEEVMAILHQLRDRGHTVIIVTHDPQVAAQAERVIEIRDGEIVRNPPAIEKVNVTGGTEPVVNTVSGWRQFVSGFNEALTMAWRALAANKMRTLLTMLGIIIGIASVVSIVVVGDAAKQMVLADIRSIGTNTIDVYPGKDFGDDDPQYQQALKYDDLIAIQKQPWVASATPAVSQNLRLRYNNVDVAASANGVSGDYFNVYGMTFSEGNTFNQEQLNGRAQVVVLDSNTRRQLFPHKADVVGEVILVGNMPARVIGVAEEKQSMFGSSKVLRVWLPYSTMSGRVMGQSWLNSITVRVKEGFDSAEAEQQLTRLLSLRHGKKDFFTWNMDGVLKTVEKTTRTLQLFLTLVAVISLVVGGIGVMNIMLVSVTERTREIGIRMAVGARASDVLQQFLIEAVLVCLVGGALGITLSLLIAFTLQLFLPGWEIGFSPLALLLAFLCSTVTGILFGWLPARNAARLDPVDALARE
B2: EmrE-EFE(1–113), unmodified (free N-terminal methionine) (natural protein)
chain: MNPYIYLGGAILAEVIGTTLMKFSEGFTRLWPSVGTIICYCASFWLLAQTLAYIPTGIAYAIWSGVGIVLISLLSWGFFGQRLDLPAIIGMMLICAGVLIINLLSRSTPHEFE
B3: EmrE-EFE(1–113), N-terminally formylated (natural protein)
chain: MNPYIYLGGAILAEVIGTTLMKFSEGFTRLWPSVGTIICYCASFWLLAQTLAYIPTGIAYAIWSGVGIVLISLLSWGFFGQRLDLPAIIGMMLICAGVLIINLLSRSTPHEFE
modifications: formylation at an N-terminal methionine
B4: MexB (natural protein, Pseudomonas aeruginosa strain PAO1, UniProt P52002 1-1046, looked up)
chain: MSKFFIDRPIFAWVIALVIMLAGGLSILSLPVNQYPAIAPPAIAVQVSYPGASAETVQDTVVQVIEQQMNGIDNLRYISSESNSDGSMTITVTFEQGTDPDIAQVQVQNKLQLATPLLPQEVQRQGIRVTKAVKNFLMVVGVVSTDGSMTKEDLSNYIVSNIQDPLSRTKGVGDFQVFGSQYSMRIWLDPAKLNSYQLTPGDVSSAIQAQNVQISSGQLGGLPAVKGQQLNATIIGKTRLQTAEQFENILLKVNPDGSQVRLKDVADVGLGGQDYSINAQFNGSPASGIAIKLATGANALDTAKAIRQTIANLEPFMPQGMKVVYPYDTTPVVSASIHEVVKTLGEAILLVFLVMYLFLQNFRATLIPTIAVPVVLLGTFGVLAAFGFSINTLTMFGMVLAIGLLVDDAIVVVENVERVMAEEGLSPREAARKSMGQIQGALVGIAMVLSAVFLPMAFFGGSTGVIYRQFSITIVSAMALSVIVALILTPALCATMLKPIEKGDHGEHKGGFFGWFNRMFLSTTHGYERGVASILKHRAPYLLIYVVIVAGMIWMFTRIPTAFLPDEDQGVLFAQVQTPPGSSAERTQVVVDSMREYLLEKESSSVSSVFTVTGFNFAGRGQSSGMAFIMLKPWEERPGGENSVFELAKRAQMHFFSFKDAMVFAFAPPSVLELGNATGFDLFLQDQAGVGHEVLLQARNKFLMLAAQNPALQRVRPNGMSDEPQYKLEIDDEKASALGVSLADINSTVSIAWGSSYVNDFIDRGRVKRVYLQGRPDARMNPDDLSKWYVRNDKGEMVPFNAFATGKWEYGSPKLERYNGVPAMEILGEPAPGLSSGDAMAAVEEIVKQLPKGVGYSWTGLSYEERLSGSQAPALYALSLLVVFLCLAALYESWSIPFSVMLVVPLGVIGALLATSMRGLSNDVFFQVGLLTTIGLSAKNAILIVEFAKELHEQGKGIVEAAIEACRMRLRPIVMTSLAFILGVVPLAISTGAGSGSQHAIGTGVIGGMVTATVLAIFWVPLFYVAVSTLFKDEASKQQASVEKGQ

How the values were obtained:
native MS [1] = biological target: the molecule itself; experiment: native MS
native MS [2] = biological target: the molecule itself; experiment: native MS; remark: listed apart in the source

Protein | stoichiometry N (native MS [1]) | stoichiometry N (native MS [2])
B1 | 2 | –
B2 | – | 2
B3 | – | 2
B4 | 3 | –
